Measurements reported in the DeepSol protein solubility set.

Test: soluble on expression in E. coli; label from the status in PepcDB or PDB records

| Sequence | soluble on expression in E. coli |
| --- | --- |
| MRTRNMQDFEGPLPDLLESALTWVKQNAPTQNVYDSSGHMRKESVYPLPAVRELIANALVHRDLSPNSDGKWVEIRLCDDRLVISNPGGLRGVSVKQLESATLSKNAVNPRLYDIAKRVRTEGAGIQEVLRQTCQALLAKPQLIDTGVQFTAILYGASVFSEAELEWLRSIGGDGLTAVEKHLLVGLRKGESWHLSRILNEFSPITVAEAEKLMHGLKKRGFIESDNKTFTLGAHSENQAPRVEKEETTLAKITKNAPTIAHALELKPEQSFEELLRTTGLSQGQLRFALDKLQAVGLVVREGGWGVHGTTYHWSAQT | not soluble |
| MTIGTLPFDQETIRQRASEVNEAAWLTEFRLQALAQATELPMPTPDKTKIDKWDFIGKGDAAKQEPVSSLTELPEAVKNLIDENNSVLVQRTGTTAFVSLADEAKEKGVIFTDIVTAATEHAELVQKYLMKDGVKVDEHRLTALHAALINGGAFVYVPKNVVLETPLQAVFLVDGEEANVYNHVLFVADANSTATYVENYVANENAKGIANIVAEVIVEQGAQVKFGAVDLLAKDVTTYVNRRGVVGRDGRIDWALGLMNDGNTISENVTNLMGDGSYADTKTVTIGRGNQTQNFTTKVVHFGKHSEGWILKHGVQKDSATSIFNGIGKIEHGASKSNAQQSSRVLMLDEKARGDANPILLIDEDDVMAGHAASVGRVDPVQLYYLMSRGIPKREAERLVIHGFLAPVVNELPIEGVKAQLVEVIERKVR | not soluble |
| MGSDKIHHHHHHMRRKIPSSTTLMAFEVAARHGSFARAAEELSLTEGAISRQIGRLEAFLGVTLFERVGNRVRLLPNGERYAAQVRESLDRLDRDSQYLMGQPSDGASLDIATIPTFAMRWLIPRLSRFQQKHPNITVHLAERMDPFVLAGSGFDAAIHFEHPAWTGMRTHQLLHEVLVPVCHPELLTGRKRKTALDELPRLHRRQNPEAWLQYSQETGTPLTNPAIGARYDLHGMLIEAALAGLGVALVPRLYVETELALGNLVAPWPEGKTISKTFCLILPEPIGLSREPIQAFAQWLLDEAKKGNSG | not soluble |
| VADRYAVYWNSSNPRFQRGDYHIDVCINDYLDVFCPHYEDSVPEDKTERYVLYMVNFDGYSACDHTSKGFKRWECNRPHSPNGPLKFSEKFQLFTPFSLGFEFRPGREYFYISSAIPDNGRRSCLKLKVFVRPTNSCM | soluble |
| MDIVQLGPAELKAWMDEGRMFCLLDVRTDEETAVCSLPNALHIPMNLIPLRQNELPDDVPLVVYCHHGIRSLHTAMYLADAGFENLYNLQGGIDAWAAEIDGNMMRY | not soluble |
| MFDPKQFDELANKLFATLPTSLQNFEKDIQQKFKEVLQSTFSRMDLVTREEFDVQCKVLARTREKLEQLQHQLEDFIKRQEVKNNK | not soluble |
| MSLNASEAVYKAILDSGVDFVTSVPCANLKTVLNYLNDNKDIQHIPVTREEEGIGVCAGAYLGGRKTALLMQNSGLGNSINAIGSLVKVYKIPILIIISHRGDLKEKISAQIPMGQWTKKLLETVEIPYFSPKTPDEAYKLIKDASELSINMEYPVAILLDALYWEHDKEGHHHHHH | soluble |
| MRLIPLGAAALAGALALAPAARAEMSAAEREAVRAEVRAYLLENPEVLMEAFTALEQRQQLDQVNADLARLQDHSSEIYTDPASWAGGNLQGDITVVEFIDYRCGYCRKANAEVEELVASDGNIRFVLKEYPILGEESVLASRFAISVLQIAGPEPYKAVHDKLITFRGDITTEALGRLADEMKLDRAAILAHMDKDEVTAVIAANHKLAETLEISGTPTFVVDRTMVRGYVPLDGMRQIVEGQRKG | not soluble |
| GMAKIEKNAPTMEKKPELFNIMEVDGVPTLILSKEWWEKVANFQAKPDDLILATYPKSGTTWMHEILDMILNDGDVEKCKRAQTLDRHAFLELKFPHKEKPDLEFVLEMSSPQLIKTHLPSHLIPPSIWKENCKIVYVARNPKDCLVSYYHFHRMASFMPDPQNLEEFYEKFMSGKVVGGSWFDHVKGWWAAKDMHRILYLFYEDIKKDPKREIEKILKFLEKDISEEILNKIIYHTSFDVMKQNPMTNYTTLPTSIMDHSISPFMRKGMPGDWKNYFTVAQNEEFDKDYQKKMAGSTLTFRTEI | soluble |
| MNITPFPTLSPATIDAINVIGQWLAQDDFSGEVPYQADCVILAGNAVMPTIDAACKIARDQQIPLLISGGIGHSTTFLYSAIAQHPHYNTIRTTGRAEATILADIAHQFWHIPHEKIWIEDQSTNCGENARFSIALLNQAVERVHTAIVVQDPTMQRRTMATFRRMTGDNPDAPRWLSYPGFVPQLGNNADSVIFINQLQGLWPVERYLSLLTGELPRLRDDSDGYGPRGRDFIVHVDFPAEVIHAWQTLKHDAVLIEAMESRSLRLEHHHHHH | not soluble |
| MSQLFVRTGIHFSSSQQALEHIGAEMLARGVVHDSYPAALLEREATFPTGIALEKHAVAIPHCEAIHAKSPAIYLIRPDMPVSFQRADDDGEIDVSLIIALIVENPAAQLKLLRRLFSELQNPHTLEALLAASDDRLPVRFQQLILEPELSAVAS | not soluble |
| MGSSHHHHHHGKTIFVIVPTNEEQVAFLEALAKQDELNFDWQNPPTEPGQPVVILIPSDMVEWFLEMLKAKGIPFTVYVEEGGSENLYFQGGGGGGQSPRDAHTHTHTHTDAHKHVLVHICVCVCACVCVSYSLHSTLALSLPAFSPHCHSLRLGFHVFRKQRARTKTAAVAEQRGLRWTHTTARTAKSGWPPRGHTDTHTHTHTHTHITWEYASSGMTLVFEARRLPFGSISEVYAASIQPIVALHALDKLPLWDRCMLVAVLPVVQQRHSASAAAAPPSTVVRPSLTRNDSDNADAAAASLSSATVRAANHEERVNASPELAGAPSLEDVALALTIVRALDELEVVYDSSISTRAELEQQQQQQPSLPAASLAEAPRRAFKQPKKTSEELLMEQLLQERFTDTAPYLLESSDEGGENSADAAVDVAMCFTVKGESLGIGSATIFGGHGYHP | not soluble |
| MSTSSLRRQMKNIVHNYSEAEIKVREATSNDPWGPSSSLMSEIADLTYNVVAFSEIMSMIWKRLNDHGKNWRHVYKAMTLMEYLIKTGSERVSQQCKENMYAVQTLKDFQYVDRDGKDQGVNVREKAKQLVALLRDEDRLREERAHALKTKEKLAQTATASSAAVGSGPPPEAEQAWPQSSGEEELQLQLALAMSKEEADQEERIRRGDDLRLQMAIEESKRETGGKEESSLMDLADVFTAPAPAPTTDPWGGPAPMAAAVPTAAPTSDPWGGPPVPPAADPWGGPAPTPASGDPWRPAAPAGPSVDPWGGTPAPAAGEGPTPDPWGSSDGGVPVSGPSASDPWTPAPAFSDPWGGSPAKPSTNGTTAGGFDTEPDEFSDFDRLRTALPTSGSSAGELELLAGEVPARSPGAFDMSGVRGSLAEAVGSPPPAATPTPTPPTRKTPESFLGPNAALVDLDSLVSRPGPTPPGAKASNPFLPGGGPATGPSVTNPFQPAPPATLTLNQLRLSPVPPVPGAPPTYISPLGGGPGLPPMMPPGPPAPNTNPFLL | soluble |
| MSLQICQGNGEFVHLLENSKGSPESFASAYSQSMRLTNGEFLCYHISTDYKSISFYNFKNASDGRTIIIHLPAKLMHEHHTLVVEEQEGVIVVDVILESSAFLTMRLPLEYIFGIENVLDDNWLSMQSPYDFTVRRPHLLHKVSQDFFVVFLEDGGLLGLRQHNENYLEPLLFNDYSYIQTLTSMFSRKKKQPADRAVACLVIHDKYLVVLTRLCHLKIWDLGSFHLVQEYNLTENFNGTLETIEYESNGNYISTLNDVIVIYLPIGNGVFKFGRLSFTNDGERKPTFNMFSSIDANMKKSTIWSFVDMKLTDPLELNFTSTTFNLIILWKSGSNSKLQILNIKDSSFSDFEWIEASNKSLQNFQTEEISALIQNYDFDKALYKLKSHYSDMTFKEADSLLLANNIVYSENNETQQQQYLANLDTLLRDINNNHSEIASFTIYKNDMILVNTHNLYNHGFYKINSSLENIYFNLSEITEGHHHHHH | soluble |
| MSFFKKLAASAGIGAAKVDTILEKDAYFPGEEVQGTVHVKGGKIAQDIRYIDLQLSTRYVIVKDDEEHRKYATIHSFRVTGSFTIQPGEEHQFPFTFTLPLDTPITVGKVEVAVVTDLDIQGGIDKSDHDRIFVEAHPWIENVLEAIENLGFRLNEADCEQAPYFQRRFPFVQEFEFVPTSGYYRQMLDELELIFLLGEDGLEIIFEVDRRARGLRGWLEEMYNDGEQLVRVRFSQSELEDAEELEEVLEEILDQYVE | soluble |
| MDTWKVGPVELKSRLILGSGKYEDFGVMREAIAAAKAEVVTVSVRRVELKAPGHVGLLEALEGVRLLPNTAGARTAEEAVRLARLGRLLTGERWVKLEVIPDPTYLLPDPLETLKAAERLIEEDFLVLPYMGPDLVLAKRLAALGTATVMPLAAPIGSGWGVRTRALLELFAREKASLPPVVVDAGLGLPSHAAEVMELGLDAVLVNTAIAEAQDPPAMAEAFRLAVEAGRKAYLAGPMRPREAASPSSPVEGVPFTPTGPRPGRGPQ | soluble |
| MGLHVPADQHDLDFTRLGPWFSVMVNGEGQRYKVSGQVTHVKPPQSVGFTWGWHDDDDRRGAESHVMFIVEPCAKGARLILDHRELGDDEMSLRHEEGWTSSLRKLAAELEHHHHHH | not soluble |
| MAHHHHHHMSSVDSTHRLLHPCTGILPSASLHGRHSIALAPPPTLPPPPLLHTRIPIHIHIIHYATLNPATFLDHSTQLDYEMPTRFKKCRHQRGSTFCGYGRVGKHRKHESGRGNAGGMHHHRINFDKYHPGYFGKLGMDHYHRKKNPMWKPTINLNNLSRLIAAEEAAKAAKGGTLPVVDLQSSGYAKLLGNGHIQVPCIVKARYVSKLADKKIRKAGGAVVLQA | not soluble |
| MMNKLPHETRVVIGMSGGVDSSVAALLLKEQGYDVIGIFMKNWDDTDENGVCTATEDYNDVIEVCNQIGIPYYAVNFEKQYWDKVFTYFLDEYRAGRTPNPDVMCNKEIKFKAFLEHAIALGADYVATGHYARVAYMDGEYKMLRGVDDNKDQTYFLNQLSQEQLSKTMFPLGELKKPQIREMAKEAGLATAAKKDSTGICFIGERNFKDFLSNYLPAQPGVMQTLSGEVKGKHDGLMYYTIGQRHGLGIGGNGDPWFAVGKNLKENILYVDQGFHNELLYGDEVIATNVGWVSNKEKETEFKCTAKFRYRQEDNKVTVQIVDENTVRILCDEPIRAITPGQAVVFYDGDECLGGATIDEVYRSGKKLDYLG | not soluble |
| SSVWNLGRLNHVAIAVPDLEKAAAFYKNILGAQVSEAVPLPEHGVSVVFVNLGNTKMELLHPLGLDSPIAGFLQKNKAGGMHHICIEVDNINAAVMDLKKKKIRSLSEEVKIGAHGKPVIFLHPKDCGGVLVELEQA | soluble |
| MTQTNRVIIFDTTLRDGEQSPGAAMTKEEKIRVARQLEKLGVDIIEAGFAAASPGDFEAVNAIAKTITKSTVCSLSRAIERDIRQAGEAVAPAPKKRIHTFIATSPIHMEYKLKMKPKQVIEAAVKAVKIAREYTDDVEFSCEDALRSEIDFLAEICGAVIEAGATTINIPDTVGYSIPYKTEEFFRELIAKTPNGGKVVWSAHCHNDLGLAVANSLAALKGGARQVECTVNGLGERAGNASVEEIVMALKVRHDLFGLETGIDTTQIVPSSKLVSTITGYPVQPNKAIVGANAFSHESGIHQDGVLKHRETYEIMSAESVGWATNRLSLGKLSGRNAFKTKLADLGIELESEEALNAAFARFKELADKKREIFDEDLHALVSDEMGSMNAESYKFISQKISTETGEEPRADIVFSIKGEEKRASATGSGPVDAIFKAIESVAQSGAALQIYSVNAVTQGTESQGETSVRLARGNRVVNGQGADTDVLVATAKAYLSALSKLEFSAAKPKAQGSGTI | not soluble |
